The text below walks through data of IntAct's records for PubMed 22153509.

B1: Interleukin-5 receptor subunit alpha (Homo sapiens), Q01344-2 (parent)
chain: MIIVAHVLLILLGATEILQADLLPDEKISLLPPVNFTIKVTGLAQVLLQWKPNPDQEQRNVNLEYQVKINAPKEDDYETRITESKCVTILHKGFSASVRTILQNDHSLLASSWASAELHAPPGSPGTSIVNLTCTTNTTEDNYSRLRSYQVSLHCTWLVGTDAPEDTQYFLYYRYGSWTEECQEYSKDTLGRNIACWFPRTFILSKGRDWLAVLVNGSSKHSAIRPFDQLFALHAIDQINPPLNVTAEIEGTRLSIQWEKPVSAFPIHCFDYEVKIHNTRNGYLQIEKLMTNAFISIIDDLSKYDVQVRAAVSSMCREAGLWSEWSQPIYVGFSR

The assay covers variants of B1. Conditions: with il5_human IL5, P05113.
Sequence of il5_human IL5, P05113 (P05113 whole entry): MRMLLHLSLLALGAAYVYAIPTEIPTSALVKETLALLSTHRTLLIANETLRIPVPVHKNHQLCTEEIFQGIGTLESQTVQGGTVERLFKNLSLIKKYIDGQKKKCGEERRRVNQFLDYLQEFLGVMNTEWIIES
For the variant MIIVAHVLLILLGATEILQADLLPDEKISLLPPVNFTIKVTGLAQVLLQWKPNPDQEQRNVNLEYQVKINAPKEDDYETRITEAKCVTILHKGFSASVRTILQNDHSLLASSWASAELHAPPGSPGTSIVNLTCTTNTTEDNYSRLRSYQVSLHCTWLVGTDAPEDTQYFLYYRYGSWTEECQEYSKDTLGRNIACWFPRTFILSKGRDWLAVLVNGSSKHSAIRPFDQLFALHAIDQINPPLNVTAEIEGTRLSIQWEKPVSAFPIHCFDYEVKIHNTRNGYLQIEKLMTNAFISIIDDLSKYDVQVRAAVSSMCREAGLWSEWSQPIYVGFSR [S84A], the “effect of a mutation on the interaction” value was “decreasing interaction”.

Turning to MIIVAHVLLILLGATEILQADLLPDEKISLLPPVNFTIKVTGAAQVLLQWKPNPDQEQRNVNLEYQVKINAPKEDDYETRITESKCVTILHKGFSASVRTILQNDHSLLASSWASAELHAPPGSPGTSIVNLTCTTNTTEDNYSRLRSYQVSLHCTWLVGTDAPEDTQYFLYYRYGSWTEECQEYSKDTLGRNIACWFPRTFILSKGRDWLAVLVNGSSKHSAIRPFDQLFALHAIDQINPPLNVTAEIEGTRLSIQWEKPVSAFPIHCFDYEVKIHNTRNGYLQIEKLMTNAFISIIDDLSKYDVQVRAAVSSMCREAGLWSEWSQPIYVGFSR [L43A], the “effect of a mutation on the interaction” value was “disrupting interaction”. Turning to MIIVAHVLLILLGATEILQADLLPDEKISLLPPVNFTIKVTGLAQVLLQWKPNPDQEQRNVNLEYQVKINAPKEDDYETRITESKCVTILHKGFSASVRTILQNDHSLLASSWASAELHAPPGSPGTSIVNLTCTTNTTEDNYSRLRSYQVSLHCTWLVGTDAPEDTQYFLYYRYGSWTEECQEYSKDTLGRNIACWFPRTFILSKGRDWLAVLVNGSSKHSAIRPFDQLFALHAIDQINPPLNVTAEIEGTRLSIQWEKPVSAFPIHCFDYEVKIHNTRNGYLQIEKLMTNAFISIIDDLSKYDVQVRAAVSSACREAGLWSEWSQPIYVGFSR [M315A], the “effect of a mutation on the interaction” value is “decreasing interaction”.

For the variant MIIVAHVLLILLGATEILQADLLPDEKISLLPPVNFTIKVTGLAQVLLQWKPNPDQEQRNVNLEYQVKINAPKEDDYETRITESKCVTILHKGFSASVRTILQNDHSLLASSWASAELHAPPGSPGTSIVNLTCTTNTTEDNYSRLRSYQVSLHCTWLVGTDAPEDTQYFLYYRYGSWTEECQEYSKDTLGRNIACWFPRTFALSKGRDWLAVLVNGSSKHSAIRPFDQLFALHAIDQINPPLNVTAEIEGTRLSIQWEKPVSAFPIHCFDYEVKIHNTRNGYLQIEKLMTNAFISIIDDLSKYDVQVRAAVSSMCREAGLWSEWSQPIYVGFSR [I203A], the “effect of a mutation on the interaction” value is reported as “decreasing interaction”. As to MIIVAHVLLILLGATEILQADLLPDEKISLLPPVNFTIKVTGLAQVLLQWKPNPDQEQRNVNLEYQVKINAPKEDDYPTRITESKCVTILHKGFSASVRTILQNDHSLLASSWASAELHAPPGSPGTSIVNLTCTTNTTEDNYSRLRSYQVSLHCTWLVGTDAPEDTQYFLYYRYGSWTEECQEYSKDTLGRNIACWFPRTFILSKGRDWLAVLVNGSSKHSAIRPFDQLFALHAIDQINPPLNVTAEIEGTRLSIQWEKPVSAFPIHCFDYEVKIHNTRNGYLQIEKLMTNAFISIIDDLSKYDVQVRAAVSSMCREAGLWSEWSQPIYVGFSR [E78P], the “effect of a mutation on the interaction” value is recorded as “disrupting interaction”. The result for MIIVAHVLLILLGATEILQADLLPDEKISLLPPVNFTIKVTGLAQVLLQWKPNPDQEQRNVNLEYQVKINAPKEDDYETAITESKCVTILHKGFSASVRTILQNDHSLLASSWASAELHAPPGSPGTSIVNLTCTTNTTEDNYSRLRSYQVSLHCTWLVGTDAPEDTQYFLYYRYGSWTEECQEYSKDTLGRNIACWFPRTFILSKGRDWLAVLVNGSSKHSAIRPFDQLFALHAIDQINPPLNVTAEIEGTRLSIQWEKPVSAFPIHCFDYEVKIHNTRNGYLQIEKLMTNAFISIIDDLSKYDVQVRAAVSSMCREAGLWSEWSQPIYVGFSR [R80A] reads “decreasing interaction”. The same measure for MIIVAHVLLILLGATEILQADLLPDEKISLLPPVNFTIKVTGLAQVLLQWKPNPDQEQRNVNLEYQVKINAPKEDDAETRITESKCVTILHKGFSASVRTILQNDHSLLASSWASAELHAPPGSPGTSIVNLTCTTNTTEDNYSRLRSYQVSLHCTWLVGTDAPEDTQYFLYYRYGSWTEECQEYSKDTLGRNIACWFPRTFILSKGRDWLAVLVNGSSKHSAIRPFDQLFALHAIDQINPPLNVTAEIEGTRLSIQWEKPVSAFPIHCFDYEVKIHNTRNGYLQIEKLMTNAFISIIDDLSKYDVQVRAAVSSMCREAGLWSEWSQPIYVGFSR [Y77A]: “decreasing interaction”; for MIIVAHVLLILLGATEILQADLLPDEKISLLPPVNFTIKVTGLAQVLLQWKPNPDQEQRNVNLEYQVKINAPKEDDYETRITESKCVTALHKGFSASVRTILQNDHSLLASSWASAELHAPPGSPGTSIVNLTCTTNTTEDNYSRLRSYQVSLHCTWLVGTDAPEDTQYFLYYRYGSWTEECQEYSKDTLGRNIACWFPRTFILSKGRDWLAVLVNGSSKHSAIRPFDQLFALHAIDQINPPLNVTAEIEGTRLSIQWEKPVSAFPIHCFDYEVKIHNTRNGYLQIEKLMTNAFISIIDDLSKYDVQVRAAVSSMCREAGLWSEWSQPIYVGFSR [I89A]: “decreasing interaction”; for MIIVAHVLLILLGATEILQADLLPDEKISLLPPVNFTIKVTGLAQVLLQWKPNPDQEQRNVNLEYQVKINAPKEDDYETRITESKCVTILHKGFSASVRTILQNDHSLLASSWASAELHAPPGSPGTSIVNLTCTTNTTEDNYSRLRSYQVSLHCTWLVGTDAPEDTQYFLYYRYGSWTEECQEYSKDTLGRNIACWFPRTFILSKGRDWLAVLVNGSSKHSAIRPFAQLFALHAIDQINPPLNVTAEIEGTRLSIQWEKPVSAFPIHCFDYEVKIHNTRNGYLQIEKLMTNAFISIIDDLSKYDVQVRAAVSSMCREAGLWSEWSQPIYVGFSR [D228A]: “disrupting interaction”. As to MIIVAHVLLILLGATEILQADLLPDEKISLLPPVNFTIKVTGLAQVLLQWKPNPDQEQRNVNLEYQVKINAPKEEDYETRITESKCVTILHKGFSASVRTILQNDHSLLASSWASAELHAPPGSPGTSIVNLTCTTNTTEDNYSRLRSYQVSLHCTWLVGTDAPEDTQYFLYYRYGSWTEECQEYSKDTLGRNIACWFPRTFILSKGRDWLAVLVNGSSKHSAIRPFDQLFALHAIDQINPPLNVTAEIEGTRLSIQWEKPVSAFPIHCFDYEVKIHNTRNGYLQIEKLMTNAFISIIDDLSKYDVQVRAAVSSMCREAGLWSEWSQPIYVGFSR [D75E], the “effect of a mutation on the interaction” value is “decreasing interaction”. As for MIIVAHVLLILLGATEILQADLLPDEKISLLPPVNFTIKVTGLAQVLLQWKPNPDQEQRNVNLEYQVKINAPKEDDYETRITESKCVTILHKGFSASVRTILQNDHSLLASSWASAELHAPPGSPGTSIVNLTCTTNTTEDNYSRLRSYQVSLHCTWLVGTDAPEDTQYFLYYRYGSATEECQEYSKDTLGRNIACWFPRTFILSKGRDWLAVLVNGSSKHSAIRPFDQLFALHAIDQINPPLNVTAEIEGTRLSIQWEKPVSAFPIHCFDYEVKIHNTRNGYLQIEKLMTNAFISIIDDLSKYDVQVRAAVSSMCREAGLWSEWSQPIYVGFSR [W178A], the “effect of a mutation on the interaction” value is “decreasing interaction”. For the variant MIIVAHVLLILLGATEILQADLLPDEKISLLPPVNFTIKVTGLAQVLLQWKPNPDQEQRNVNLEYQVKINAPKEDDYETRITESKCVTILHKGFSASVRTILQNDHSLLASSWASAELHAPPGSPGTSIVNLTCTTNTTEDNYSRLRSYQVSLHCTWLVGTDAPEDTQYFLYYRYGSWTEECQEYSKDTLGRNIACWFPRTFILSKGKDWLAVLVNGSSKHSAIRPFDQLFALHAIDQINPPLNVTAEIEGTRLSIQWEKPVSAFPIHCFDYEVKIHNTRNGYLQIEKLMTNAFISIIDDLSKYDVQVRAAVSSMCREAGLWSEWSQPIYVGFSR [R208K], the “effect of a mutation on the interaction” value is on record as “decreasing interaction”.
